other: band density of cell-free experiment (ratios to HSP90α), DMSO group set as 1.0 data for one substance are collected here from PMC4932452.

For the assay, the target named is heat shock protein 70 (UniProt P0DMV8). The assay can be described thus: co-immunoprecipitation (anti-Flag beads) and western blot, band densitometry. Conditions: beads incubated with celastrol for 10 min, room temperature; n = 3; parent: est. 0.73; read off a plot.
UniProt P0DMV8, sequence (P0DMV8 whole entry): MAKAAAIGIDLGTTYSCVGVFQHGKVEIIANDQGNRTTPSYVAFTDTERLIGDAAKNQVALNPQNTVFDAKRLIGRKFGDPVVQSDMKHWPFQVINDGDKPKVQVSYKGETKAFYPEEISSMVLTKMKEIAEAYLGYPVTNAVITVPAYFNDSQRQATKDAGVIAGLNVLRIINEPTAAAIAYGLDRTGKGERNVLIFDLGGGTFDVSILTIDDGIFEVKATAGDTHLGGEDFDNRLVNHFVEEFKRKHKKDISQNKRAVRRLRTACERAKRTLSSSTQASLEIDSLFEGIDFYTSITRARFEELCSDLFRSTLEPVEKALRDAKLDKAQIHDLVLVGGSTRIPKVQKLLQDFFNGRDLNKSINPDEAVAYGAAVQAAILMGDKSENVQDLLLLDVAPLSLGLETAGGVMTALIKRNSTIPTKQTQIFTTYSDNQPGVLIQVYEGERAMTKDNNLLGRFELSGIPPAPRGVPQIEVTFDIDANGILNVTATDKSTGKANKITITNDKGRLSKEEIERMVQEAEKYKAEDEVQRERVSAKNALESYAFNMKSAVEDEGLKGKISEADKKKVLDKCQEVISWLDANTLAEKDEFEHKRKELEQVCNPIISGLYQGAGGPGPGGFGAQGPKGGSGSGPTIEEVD

For the substance “wild-type human HSP90α (Flag-tagged, from pCMV-tag2a) (from UniProt P07900-1) Y493G; K546D”, the other: band density of cell-free experiment (ratios to HSP90α), DMSO group set as 1.0 is 1.3.
